Reference: the DeepSol protein solubility set

Assay: soluble on expression in E. coli; label from the status in PepcDB or PDB records
For “MPRIITRPFLFSPLTLCISAVASAAKTAVKRKKLFTAVLALSWAFSVTAAERIVVAGGSLTELIYAMGAGERVVGVDETTSYPPETAKLPHIGYWKQLSSEGILSLRPDSVITWQDAGPQIVLDQLRAQKVNVVTLPRVPATLQQMYANIRQLAKTLQVPEQGEALVTQISQRLERVQQNVATKKAPVKAMFILSAGGSAPQVAGKGSVADAILSLAGAENVATHQQYKSYSAESLIAANPEVIVVTSQMVDGDINRLRSIAGITHTAAWKNQRIITVDQNLILGMGPRIADVVESLHQQLWPQ”, the “soluble on expression in E. coli” value was “not soluble”.
With “MGEAAYVTVSALTKYIKRKFDVDPHLENIWIKGELSNVKIHTRGHIYFTLKERKGRMQSVMFARQSERLPFKPENGMKVLVRGGISVYEPSGNYQLYAKEMQPDGVGALYLAYEELKKKLAGEGLFDDRYKKQIPAFPATIGVVTSPTGAAVRDVITTLKRRYPLVKVIVLPALVQGENASRSIVTRIEEANEKEICDVLIVGRGGGSIEELWAFNEEIVARAIFASNIPIISAVGHETDFTISDFVADIRAATPTGAAEIAVPHTTDLIERTKTAEVRMTRAMQQHLGQEKGRIQTLQSSYAFRFPKRLYAQKEQQFDLAYQQFQAQLTALLDRKSRQLERETYRLEALHPHEQLKQARTRYQEQTNQLRKNMNIQMKQLHSQFQTVLGKLNALSPLQVMERGYSLAYKEDKLIKSVSQIEEQDRLEIKLKDGVLTCEVLEKRGEEK” the “soluble on expression in E. coli” value was “not soluble”.
With “MGSDKIHHHHHHTSCIEDEKDYSQIIETRVANCETSKDFSVPVKEGYTTFVTSGEDTLAMANEPITIRIPKNATISTRAEGDGINISYTILDEGSETTYAKVWQAIMFEDTQNGDYDYNDLIIHVKNTASNHAYQHPTETWQTIEIQPIALGSTKTIKLGCILSDGSTHMISDDVRTDLFGGRQGFINTVNDNDPIRYKLASTNIKNYAMPKKEKTSAAWVAWFIEVDGKRMYAASSDIDYKSYDMVNKENMPYGLAVSNGNGTFSYPQEKNSLFETYPGFSDWINGKVSSIGSFQKELVYKYCSGGIIGEDGKSHKIWDYLDLN” the “soluble on expression in E. coli” value was “not soluble”.
For “MSRPRKRLAGTSGSDKGLSGKRTKTENSGEALAKVEDSNPQKTSATKNCLKNLSSHWLMKSEPESRLEKGVDVKFSIEDLKAQPKQTTCWDGVRNYQARNFLRAMKLGEEAFFYHSNCKEPGIAGLMKIVKEAYPDHTQFEKNNPHYDPSSKEDNPKWSMVDVQFVRMMKRFIPLAELKSYHQAHKATGGPLKNMVLFTRQRLSIQPLTQEEFDFVLSLEEKGPSLEHHHHHH”, the “soluble on expression in E. coli” value was “not soluble”.
In the case of “MGSDKIHHHHHHMKKEKVEERIREILRPGWDLLTEEAMLYSATVGGKRIRPLLVLTLGEDLGVEEEKLLDVAVAVELFHTASLIHDDLPPIDNADFRRGKPSCHRTYGEDIALLAGDGLFFLAFSQISKIGNSKIFEEFSETAYKLLLGEAMDVEFERRKMEVSQEMVERMYAFKTGALFAFCFSAPFILKGKDHTKMKLLGEKFGVAFQIYDDLKDILGSFEKVGKDLGKDTEKVTLVKKVGIQKAREMADKYYEEVLKGIESEGLFRTLFLLKELKQMVEER”, the “soluble on expression in E. coli” value is reported as “soluble”.
For “MVAKISVGSSLFGALSYNQNKVDEEQGKVLLSNRMFESEDGNFSIRRCMECFDIHLPADLKTEKPIIHISLNPHPDDVLLDSQLADIAKEYMDKLGYGNQPYIVYKHEDIARHHIHIVSIRVDDTGKKINDKFEHIRSKQITRELEQKYGLHPAEKKQAAERPELKKVDYRAGDVKHQLSNTVKALASSYRFQSFTEYKALLSIYNVQAEEVKGEVNGKPYNGIVYSATNDKGEKQGNPFKSSSLGKSVGYEAIQRHIKKSTKDIQGKNLKERTRRTVGAVMKSTYNRKELEQELKKKGIDVLFRQNDTGRIYGVTFIDHENRTVLNGSRLGKDFSANVFNNLFSGSRTLTGNSKQEMQEHTPEFNSTGHLENTGKTIAGLFSLLSGGNDTPPDNSQVPPSKKRKKKKQRRILEHHHHHH”, the “soluble on expression in E. coli” value was “not soluble”.
In the case of “MGSDKIHHHHHHMDISDIAANDYVEVDAEQRLGKVRSLFERENPKGVIVTEAGAYDGVITERQLIQSHIGDDTRVAAMVTDAPKVSRTEDVRETARMLVEGGTKIAPVFEAGSLWGVITEDAILDAVLANLDALDVRDIYTEHVVTVDEDDSMGRVINLLREHGISRLPVVDDAGLLSGIVTRYDIVDFVVRDTEKTTVGDRSGEIERLLDLPVSDEMTSPVKTASFDDSVRDAVDDMLAHDYSGVIVTPDDDERAVGGILTKTDVLRALSYTEEEHLDVQITNIDLLDTLSRQEVRERIENVVAKYGDMDVHHAHVRLSKHKEKLRGTPLIQSQIRLRTNKGQIAGTGEGYGADNSFHVALDKLERNVLELKGIEHDEEYEGQLLRKLNDL”, the “soluble on expression in E. coli” value is reported as “not soluble”.
With “MSQLVFIVFQDNDDSRYLAEAVMEDNPDAEMQHQPAMIRIQAEKRLVINRETMEEKLGRDWDVQEMLINVISIAGNVDEDDDHFILEWN” the “soluble on expression in E. coli” value was “soluble”.
For “ASTRNLMIEGENLEVLKLLQKSYAGRAKLVYIDPPYNTGKDFVYSDNFTDSLRHYLELTGQTTDGKRISSHTDASGRFHTDWLNMIYPRLKLARDLLADDGVIAVHIDEHEQHALVLVMREIFGEDNELGVAVWDKRNPKGDARGIAYQHESIVLFARDAQLLFERAPLKRPKRNAQRMLDAARGAIAGAATIADANAAYRAWVKSQTTLSGGEAMYDRISADGRVYRLVSMAWPNKKKAPDDYFVPLVHPVTGKPCPVPERGWRNPPATMQALIDKGLVEFGADETTQPQRIYFLDENMYENVPSVLPFGGSDDALMKSLGIPFDQPKPVEFAASIIGWCTDGDDLIVDFFGGSGTTGHAVMALNAADGGNRRYVLVQLPEPLDAGSKDQKAAADFCAAQRVPLNLAELTKERLRRAAARVAAEHPGTR”, the “soluble on expression in E. coli” value was “soluble”.
For “MVEIFNEIMQRVKEAETIIIHRHVRPDPDAYGSQLGLKLYLERKFPEKNIYATGEAEPSLSFIGDLDEIDDSVYSDALVIVCDTANAPRIDDQRYLNGQSLIKIDHHPATDQYGDVNFVNTEASSTSEIIFDFISHFNDLSIIDEHVARVLYLGIVGDTGRFLFSNTSPHTMEVASQLLAYPFNHNAELNKMSEKDPKLMPFQGYVLQNFELSDSHEYCQIKITNDVLKQFDIQPNEASQFVNTVADISGLKIWMFGVDEGDQIRCRIRSKGITINDVANQFGGGGHPNASGVSVYSWDEFEELAQALRQKLLEHHHHHH”, the “soluble on expression in E. coli” value was “soluble”.
For “MEDEIKSFEKDRNLIIEDSKNSKNNIVDVQKLIEALKDEKNAKNIVVDFTEYNPLHNGHKYCMDFGKSEGLFISVIPGPLERSGRGIPYLVNRHIRAEMALLAGADLVVEGPPMGIMGSGQYMQCLIKIFSALNGDIIPRGYIEEETMERVINSINNGNHIKIKPYNISCIETREKLGEKLEIDNYVIASMSYTIYKLKENFPKWNPKFKFIERIEGISGTKIREGVFNNNFESIKHMLPITTIDVFKNFGDNLSEIILKRNEEMVLDTVNNFDLNKYLPENISEKLNEKEYYESIEEIKEYIPRGFSKNNIERTISKLEARIEKETISKYIENYPANLRILNGINNHE”, the “soluble on expression in E. coli” value was “not soluble”.
With “MSLTYYDDIRKVQDLHLPWEILTDINILIVGASGLIGRALVDTLMQLPDKTFHLYAGVRDLVYAQSCFMRYKDDESFTLIQCDVTALIPFDIDFHYIIHAASYAGPAAFHNDPVGVMKANILGVDNLFSYGEQHNLRRLLYVSSGEVYGEGNGIPFREEDSGSLDWASLRACYPAAKRTAETLCIAYAAQFQIETVIARPCHIYGPFYTSKDDRAYAQFIRNVLAGENIILRSSGLQQRSWCYVVDCVFALLYVLLKGKTKNAYNIADVRSNVSIREFAEMIALKSEREVIFDLPDNTGKNKPIISQAIFNTEKINKIGWFPQWKLEEGVSHTLNTLISVDGTYEGHITITTDPNSSSVDKLAAALEHHHHHH” the “soluble on expression in E. coli” value was “soluble”.
In the case of “MGHHHHHHSHMPKVKRSRKAPPDGWELIEPTLDELDQKMREAETEPHEGKRKVESLWPIFRIHHQKTRYIFDLFYKRKAISRELYEYCIKEGYADKNLIAKWKKQGYENLCCLRCIQTRDTNFGTNCICRVPKSKLEVGRIIECTHCGCRGCSG”, the “soluble on expression in E. coli” value is reported as “soluble”.
For “GIDPFTKMGGDRRPITILTSDLRGFTSTSEGLNPEEVVKVLNIYFGKMADVITHHGGTIDEFMGDGILVLFGAPTSQQDDALRAVACGVEMQLALREVNQQVTGLGLQPLEMGIGINTGEVVVGNIGSEKRTKYGVVGAQVNLTYRIESYTTGGQIFISSTTLEAAGDRVHVNGNRTVQPKGVKDPVVIWDVAGVGEPYNLSLAVEEQ”, the “soluble on expression in E. coli” value was “soluble”.
In the case of “MARVRIVAKKNGPYLLEVDGKVQTALCRCGHSNNKPYCDGTHARVGFQADEKVAFEAEFAAALEHHHHHH”, the “soluble on expression in E. coli” value is reported as “not soluble”.
For “MARMNRPAPVEVTYKNMRFLITHNPTNATLNKFIEELKKYGVTTIVRVCEATYDTTLVEKEGIHVLDWPFDDGAPPSNQIVDDWLSLVKIKFREEPGCCIAVHSVAGLGRAPVLVALALIEGGMKYEDAVQFIRQKRRGAFNSKQLLYLEKYRPKMRLRFKDSNGHRNNCCIQ”, the “soluble on expression in E. coli” value was “soluble”.
For “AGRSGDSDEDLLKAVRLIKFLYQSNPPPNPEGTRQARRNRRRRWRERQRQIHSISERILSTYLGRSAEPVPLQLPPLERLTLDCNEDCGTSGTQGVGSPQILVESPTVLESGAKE”, the “soluble on expression in E. coli” value was “soluble”.
For “MARTNLQFANLELFVDQLTGAMTFTRTSLLTAAQGALVTRFAEIDGRVKKNLDRVLAAFRQHRLGVHHFSSMTGYGHGDLGREVLDRVFAQVMGAEAALVRVQFVSGTHAIATALFGVLRPGDELISLAGPPYDTLEEVIGLRGQGQGSLKDFGIHYRELPLLASGEPDWGAIATCVQPQTRMVLIQRSCGYTWRPSLSLEDIGKMIQLIKSQNPDVVCFVDNCYGEFVETQEPPHVGADLIAGSLIKNPGGTIATAGGYLAGRADLIEQASYRLTAPGIGHEGGATFDQHRLLFQGLFLAPQMVGEALKCAHLLAYVFDELGYPVNPAPLSRRRDVIQAVQLGSPEKLIAFCRILQRYSPVGSYLDPVPAPMPGYADDLVMAGGTFIDGSTSELSADGPLRPPYIVFCQGGTHHTHMALILEALLEAQVFLEHHHHHH”, the “soluble on expression in E. coli” value was “not soluble”.
For “MCMMSHNKAFFLSLQHAAVSGVAVCLSVRRGAGSVPAGNRGKKTIITEYRITGTRALARCPTKPVTSMWNSSWTSRLEHHHHHH”, the “soluble on expression in E. coli” value was “not soluble”.
For “AAYEAELLGRVGLMSHLTRRLHESAKLNPHRVIYAACENPSVLKAAVSARAHGIARPIMLGDEKQIRDFAAELDLSLEGIEIVNYRSDEEKARRHHYARVFAEQNWRRGGNHTEALDKMFDPNYFGMMMVRLGDADAMITGIYSKHSYLAEVAKQTVGLQEGVGHFATMHMVSLKNGPLFLADTLINHNLSAEALVDIAVMAYEKAHCFGVKPVLAIVGFSDFGADSDADSTVEAAKAVAILHEKYPYILVDGEMRVSLALHAEKRDKQYPQNKIKGRNANVLIFPRLSAANACYQLLREADDAEEVLGPIQIGLAKPVYFADHDATVSDILNITAMAVLDSHACLI”, the “soluble on expression in E. coli” value was “soluble”.
With “MRARIICGFRLVSETGSGSSSSDLTSASGASQWGNSSRSHWLKRWCASCSSAPEISNWQLSPASVSVPISARALLALPCGQCAGYATQFVMKKYYTAFQRGLPDAHVRRLEHHHHHH” the “soluble on expression in E. coli” value was “not soluble”.
For “MSSENAQLKKDLIKAVLSPLFPTATEGGENMDSNLKALLDAAIDQKVDESETVTAESILDPSLPARWIFARITPGTTISIVTDSGDMIGPVVFVAFDQVHGIVFVTQESSVTPAGQATTLIDVDKVESVTFFSLEHHHHHH”, the “soluble on expression in E. coli” value was “soluble”.
In the case of “SDRAEVRNIPFKLGMYLTVGGVVNSNATRFSINVGESTDSIAMHMDHRFSYGADQNVLVLNSLVHNVGWQQEERSKKFPFTKGDHFQITITFDTHTFYIQLSNGETVEFPNRNKDAAFNLIYLAGDARLTFVRLE”, the “soluble on expression in E. coli” value is reported as “soluble”.
